# Measurements reported in patent publication US20190262431.
# Target: active (phosphorylated) human Syk (Merck Millipore) (UniProt P43405)
substance,measurement,value
"catalytically inactive human C373A Cbl-b^29-483 mutant (recombinant, GST fusion protein)",in vitro poly-ubiquitination of active Syk (Western blot),did not show Syk poly-ubiquitination activity
